# From patent US11325966
# Read-outs that look alike come from different tables or passages of the source.
# B1: 10-1074 (antibody, V domains shown)
# VH: QVQLQESGPGLVKPSETLSVTCSVSGDSMNNYYWTWIRQSPGKGLEWIGYISDRESATYNPSLNSRVVISRDTSKNQLSLKLNSVTPADTAVYYCATARRGQRIYGVVSFGEFFYYYSMDVWGKGTTVTVSS
# VL: SYVRPLSVALGETARISCGRQALGSRAVQWYQHRPGQAPILLIYNNQDRPSGIPERFSGTPDINFGTRATLTISGVEAGDEADYYCHMWDSRSGFSWSFGGATRLTVL
# Assays:
# Test in all cases: cell-based or functional assay
# 92BR020 N136A (HIV-1) = molecular target: 92BR020 N136A (HIV-1)
# JR-CSF Q328A (HIV-1) = JR-CSF Q328A (HIV-1) (UniProt P20871)
# JR-CSF I326A (HIV-1) = JR-CSF I326A (HIV-1) (UniProt P20871)
# 92BR020 N156A (HIV-1) = molecular target: 92BR020 N156A (HIV-1)
# 92BR020 R327A (HIV-1) = molecular target: 92BR020 R327A (HIV-1)
# JR-CSF D325A (HIV-1) = JR-CSF D325A (HIV-1) (UniProt P20871)
# JR-CSF H33OA (HIV-1) = JR-CSF H33OA (HIV-1) (UniProt P20871)
# 92BR020 I326A (HIV-1) = molecular target: 92BR020 I326A (HIV-1)
# JR-CSF N339A (HIV-1) = JR-CSF N339A (HIV-1) (UniProt P20871)
# 92BR020 H33OA (HIV-1) = molecular target: 92BR020 H33OA (HIV-1)
# [1] = molecular target: HIV-1 Env of pseudovirus 1394C9G1(Rev-) (HIV-1)
# [2] = molecular target: 92BR020 N136A + N332A (HIV-1)
# JR-CSF N332A (HIV-1) = JR-CSF N332A (HIV-1) (UniProt P20871)
# 92BR020 N301A (HIV-1) = molecular target: 92BR020 N301A (HIV-1)
# [3] = molecular target: BG505 (T332N) N137A (HIV-1)
# JR-CSF G324A (HIV-1) = JR-CSF G324A (HIV-1) (UniProt P20871)
# JR-CSF N392A (HIV-1) = JR-CSF N392A (HIV-1) (UniProt P20871)
# [4] = molecular target: HIV-1 Env of pseudovirus C3347.c11 (HIV-1)
# 92BR020 Q328A (HIV-1) = molecular target: 92BR020 Q328A (HIV-1)
# [5] = molecular target: HIV-1 Env of pseudovirus ZM247v1(Rev-) (HIV-1)
# [6] = molecular target: BG505 (T332N) N156A (HIV-1)
# JR-CSF N386A (HIV-1) = JR-CSF N386A (HIV-1) (UniProt P20871)
# [7] = molecular target: HIV-1 Env of pseudovirus ZM135M.PL10a (HIV-1)
# [8] = molecular target: HIV-1 Env of pseudovirus 9004SS_A3_4 (HIV-1)
# [9] = molecular target: HIV-1 Env of pseudovirus 620345.c01 (HIV-1)
# [10] = molecular target: HIV-1 Env of pseudovirus 6545.v4.c1 (HIV-1)
# [11] = molecular target: HIV-1 Env of pseudovirus Ce703010054_2A2 (HIV-1)
# [12] = molecular target: HIV-1 Env of pseudovirus TRJO4551.58 (HIV-1)
# [13] = molecular target: HIV-1 Env of pseudovirus 3301.v1.c24 (HIV-1)
# [14] = molecular target: HIV-1 Env of pseudovirus 191955_A11 (HIV-1)
# [15] = molecular target: HIV-1 Env of pseudovirus MS208.A1 (HIV-1)
# [16] = molecular target: HIV-1 Env of pseudovirus HIV-16055-2.3 (HIV-1)
# [17] = molecular target: HIV-1 Env of pseudovirus BJOX015000.11.5 (HIV-1)
# [18] = molecular target: HIV-1 Env of pseudovirus SC05_8C11_2344 (HIV-1)
# [19] = molecular target: HIV-1 Env of pseudovirus P1981_C5_3 (HIV-1)
# [20] = molecular target: HIV-1 Env of pseudovirus R3265.c06 (HIV-1)
# [21] = molecular target: HIV-1 Env of pseudovirus T278-50 (HIV-1)
# [22] = molecular target: HIV-1 Env of pseudovirus Q842.d12 (HIV-1)
# [23] = molecular target: HIV-1 Env of pseudovirus R1166.c01 (HIV-1)
# [24] = molecular target: HIV-1 Env of pseudovirus C2101.c01 (HIV-1)
# [25] = molecular target: HIV-1 Env of pseudovirus T251-18 (HIV-1)
# [26] = molecular target: HIV-1 Env of pseudovirus C3347.c11 (HIV-1); remark: listed apart in the source
# [27] = molecular target: HIV-1 Env of pseudovirus QH0692.42 (HIV-1)
# [28] = molecular target: HIV-1 Env of pseudovirus WITO4160.33 (HIV-1)
# [29] = molecular target: HIV-1 Env of pseudovirus CNE52 (HIV-1)
molecule,measurement,setting,value
354BG8 (antibody),IC50 in TZM-bl assay,92BR020 N136A (HIV-1),0.005 µg/mL
same,IC50 in TZM-bl assay,JR-CSF Q328A (HIV-1),0.023 µg/mL
same,IC50 in TZM-bl assay,JR-CSF I326A (HIV-1),0.005 µg/mL
same,IC50 in TZM-bl assay,92BR020 N156A (HIV-1),0.011 µg/mL
same,IC50 in TZM-bl assay,92BR020 R327A (HIV-1),0.011 µg/mL
same,IC50 in TZM-bl assay,JR-CSF D325A (HIV-1),0.005 µg/mL
same,IC50 in TZM-bl assay,JR-CSF H33OA (HIV-1),0.05 µg/mL
same,IC50 in TZM-bl assay,92BR020 I326A (HIV-1),0.006 µg/mL
same,IC50 in TZM-bl assay,JR-CSF N339A (HIV-1),0.01 µg/mL
same,IC50 in TZM-bl assay,92BR020 H33OA (HIV-1),0.018 µg/mL
same,IC50 in TZM-bl assay,[1],0.031 µg/mL
same,IC80 in TZM-bl assay,[1],0.093 µg/mL
same,IC50 in TZM-bl assay,[2],> 50 µg/mL
same,IC50 in TZM-bl assay,JR-CSF N332A (HIV-1),> 50 µg/mL
same,IC50 in TZM-bl assay,92BR020 N301A (HIV-1),0.009 µg/mL
same,IC50 in TZM-bl assay,[3],0.003 µg/mL
same,IC50 in TZM-bl assay,JR-CSF G324A (HIV-1),0.005 µg/mL
same,IC50 in TZM-bl assay,JR-CSF N392A (HIV-1),0.014 µg/mL
same,IC50 in TZM-bl assay,[4],> 10 µg/mL
same,IC80 in TZM-bl assay,[4],> 10 µg/mL
same,IC50 in TZM-bl assay,92BR020 Q328A (HIV-1),0.018 µg/mL
same,IC50 in TZM-bl assay,[5],0.042 µg/mL
same,IC80 in TZM-bl assay,[5],0.146 µg/mL
same,IC50 in TZM-bl assay,[6],0.008 µg/mL
same,IC50 in TZM-bl assay,JR-CSF N386A (HIV-1),0.012 µg/mL
BG18 IgG (354BG18) (antibody),IC50 in TZM-bl assay,[7],0.029 µg/mL
same,IC80 in TZM-bl assay,[7],0.161 µg/mL
same,IC50 in TZM-bl assay,[4],> 30 µg/mL
same,IC80 in TZM-bl assay,[4],> 30 µg/mL
PGT121 (antibody),IC50 in TZM-bl assay,92BR020 N136A (HIV-1),0.002 µg/mL
same,IC50 in TZM-bl assay,JR-CSF Q328A (HIV-1),0.057 µg/mL
same,IC50 in TZM-bl assay,JR-CSF I326A (HIV-1),0.024 µg/mL
same,IC50 in TZM-bl assay,92BR020 N156A (HIV-1),0.003 µg/mL
same,IC50 in TZM-bl assay,92BR020 R327A (HIV-1),0.001 µg/mL
same,IC50 in TZM-bl assay,JR-CSF D325A (HIV-1),0.079 µg/mL
same,IC50 in TZM-bl assay,JR-CSF H33OA (HIV-1),0.017 µg/mL
same,IC50 in TZM-bl assay,92BR020 I326A (HIV-1),0.002 µg/mL
same,IC50 in TZM-bl assay,JR-CSF N339A (HIV-1),0.007 µg/mL
same,IC50 in TZM-bl assay,[7],0.73 µg/mL
same,IC80 in TZM-bl assay,[7],5.73 µg/mL
same,IC50 in TZM-bl assay,92BR020 H33OA (HIV-1),0.003 µg/mL
same,IC50 in TZM-bl assay,[1],0.823 µg/mL
same,IC80 in TZM-bl assay,[1],6.23 µg/mL
same,IC50 in TZM-bl assay,[2],> 1 µg/mL
same,IC50 in TZM-bl assay,JR-CSF N332A (HIV-1),> 50 µg/mL
same,IC50 in TZM-bl assay,92BR020 N301A (HIV-1),0.003 µg/mL
same,IC50 in TZM-bl assay,[3],0.002 µg/mL
same,IC50 in TZM-bl assay,JR-CSF G324A (HIV-1),0.044 µg/mL
same,IC50 in TZM-bl assay,JR-CSF N392A (HIV-1),0.017 µg/mL
same,IC50 in TZM-bl assay,92BR020 Q328A (HIV-1),0.002 µg/mL
same,IC50 in TZM-bl assay,[5],0.036 µg/mL
same,IC80 in TZM-bl assay,[5],0.123 µg/mL
same,IC50 in TZM-bl assay,[6],0.007 µg/mL
same,IC50 in TZM-bl assay,JR-CSF N386A (HIV-1),0.024 µg/mL
B1,IC50 in TZM-bl assay,[8],0.012 µg/mL
same,IC80 in TZM-bl assay,[8],0.032 µg/mL
same,IC50 in TZM-bl assay,[9],> 10 µg/mL
same,IC80 in TZM-bl assay,[9],> 10 µg/mL
same,IC50 in TZM-bl assay,[10],> 10 µg/mL
same,IC80 in TZM-bl assay,[10],> 10 µg/mL
same,IC50 in TZM-bl assay,[11],> 10 µg/mL
same,IC80 in TZM-bl assay,[11],> 10 µg/mL
same,IC50 in TZM-bl assay,[12],0.057 µg/mL
same,IC80 in TZM-bl assay,[12],0.218 µg/mL
same,IC50 in TZM-bl assay,[13],0.018 µg/mL
same,IC80 in TZM-bl assay,[13],0.049 µg/mL
same,IC50 in TZM-bl assay,[14],> 10 µg/mL
same,IC80 in TZM-bl assay,[14],> 10 µg/mL
same,IC50 in TZM-bl assay,[15],> 10 µg/mL
same,IC80 in TZM-bl assay,[15],> 10 µg/mL
same,IC50 in TZM-bl assay,[16],> 10 µg/mL
same,IC80 in TZM-bl assay,[16],> 10 µg/mL
same,IC50 in TZM-bl assay,[17],> 10 µg/mL
same,IC80 in TZM-bl assay,[17],> 10 µg/mL
same,IC50 in TZM-bl assay,[18],0.017 µg/mL
same,IC80 in TZM-bl assay,[18],0.048 µg/mL
same,IC50 in TZM-bl assay,[19],0.004 µg/mL
same,IC80 in TZM-bl assay,[19],0.013 µg/mL
same,IC50 in TZM-bl assay,[20],> 10 µg/mL
same,IC80 in TZM-bl assay,[20],> 10 µg/mL
same,IC50 in TZM-bl assay,[21],1.71 µg/mL
same,IC80 in TZM-bl assay,[21],> 10 µg/mL
same,IC50 in TZM-bl assay,[22],> 10 µg/mL
same,IC80 in TZM-bl assay,[22],> 10 µg/mL
same,IC50 in TZM-bl assay,[23],> 10 µg/mL
same,IC80 in TZM-bl assay,[23],> 10 µg/mL
same,IC50 in TZM-bl assay,[24],> 10 µg/mL
same,IC80 in TZM-bl assay,[24],> 10 µg/mL
same,IC50 in TZM-bl assay,[25],0.399 µg/mL
same,IC80 in TZM-bl assay,[25],2.29 µg/mL
same,IC50 in TZM-bl assay,[26],> 10 µg/mL
same,IC80 in TZM-bl assay,[26],> 10 µg/mL
same,IC50 in TZM-bl assay,[27],0.106 µg/mL
same,IC80 in TZM-bl assay,[27],0.383 µg/mL
same,IC50 in TZM-bl assay,[28],0.111 µg/mL
same,IC80 in TZM-bl assay,[28],0.828 µg/mL
same,IC50 in TZM-bl assay,[29],1.99 µg/mL
same,IC80 in TZM-bl assay,[29],9.76 µg/mL
